Test results as given in patent US8785135B2, “Mutant G-protein coupled receptors and methods for selecting them” (Heptares Therapeutics Limited, priority 2007, dated 2014).

Assay: Thermostability of NTR and mutants (3H-neurotensin binding)
Type: physicochemical
Conditions: for thermostability, 3H-neurotensin (agonist) binding after the heating step: heated in the absence of the agonist; for thermostability, heated in the presence of 3H-neurotensin: Ligand(+) format

Molecule | thermostability, 3H-neurotensin (agonist) binding after the heating step | thermostability, heated in the presence of 3H-neurotensin | Tm (neurotensin bound) [°C]
D139A: NTR point mutant (protein, UniProt P20789 1-424, looked up, variant D139A) Neurotensin receptor type 1: MHLNSSVPQGTPGEPDAQPFSGPQSEMEATFLALSLSNGSGNTSESDTAGPNSDLDVNTDIYSKVLVTAIYLALFVVGTVGNSVTAFTLARKKSLQSLQSTVHYHLGSLALSDLLILLLAMPVELYNFIWVHHPWAFGAAGCRGYYFLRDACTYATALNVASLSVERYLAICHPFKAKTLMSRSRTKKFISAIWLASALLAIPMLFTMGLQNRSGDGTHPGGLVCTPIVDTATVKVVIQVNTFMSFLFPMLVISILNTVIANKLTVMVHQAAEQGRVCTVGTHNGLEHSTFNMTIEPGRVQALRHGVLVLRAVVIAFVVCWLPYHVRRLMFCYISDEQWTTFLFDFYHYFYMLTNALFYVSSAINPILYNLVSANFRQVFLSTLACLCPGWRHRRKKRPTFSRKPNSMSSNHAFSTSATRETLY | small but significant increase in thermostability |  | 
V165A: NTR point mutant (protein, UniProt P20789 1-424, looked up, variant V165A) Neurotensin receptor type 1: MHLNSSVPQGTPGEPDAQPFSGPQSEMEATFLALSLSNGSGNTSESDTAGPNSDLDVNTDIYSKVLVTAIYLALFVVGTVGNSVTAFTLARKKSLQSLQSTVHYHLGSLALSDLLILLLAMPVELYNFIWVHHPWAFGDAGCRGYYFLRDACTYATALNVASLSAERYLAICHPFKAKTLMSRSRTKKFISAIWLASALLAIPMLFTMGLQNRSGDGTHPGGLVCTPIVDTATVKVVIQVNTFMSFLFPMLVISILNTVIANKLTVMVHQAAEQGRVCTVGTHNGLEHSTFNMTIEPGRVQALRHGVLVLRAVVIAFVVCWLPYHVRRLMFCYISDEQWTTFLFDFYHYFYMLTNALFYVSSAINPILYNLVSANFRQVFLSTLACLCPGWRHRRKKRPTFSRKPNSMSSNHAFSTSATRETLY |  | improved thermostability | 
A90L: NTR point mutant (protein, UniProt P20789 1-424, looked up, variant A90L) Neurotensin receptor type 1: MHLNSSVPQGTPGEPDAQPFSGPQSEMEATFLALSLSNGSGNTSESDTAGPNSDLDVNTDIYSKVLVTAIYLALFVVGTVGNSVTAFTLLRKKSLQSLQSTVHYHLGSLALSDLLILLLAMPVELYNFIWVHHPWAFGDAGCRGYYFLRDACTYATALNVASLSVERYLAICHPFKAKTLMSRSRTKKFISAIWLASALLAIPMLFTMGLQNRSGDGTHPGGLVCTPIVDTATVKVVIQVNTFMSFLFPMLVISILNTVIANKLTVMVHQAAEQGRVCTVGTHNGLEHSTFNMTIEPGRVQALRHGVLVLRAVVIAFVVCWLPYHVRRLMFCYISDEQWTTFLFDFYHYFYMLTNALFYVSSAINPILYNLVSANFRQVFLSTLACLCPGWRHRRKKRPTFSRKPNSMSSNHAFSTSATRETLY | small but significant increase in thermostability | improved thermostability | 
V229A: NTR point mutant (protein, UniProt P20789 1-424, looked up, variant V229A) Neurotensin receptor type 1: MHLNSSVPQGTPGEPDAQPFSGPQSEMEATFLALSLSNGSGNTSESDTAGPNSDLDVNTDIYSKVLVTAIYLALFVVGTVGNSVTAFTLARKKSLQSLQSTVHYHLGSLALSDLLILLLAMPVELYNFIWVHHPWAFGDAGCRGYYFLRDACTYATALNVASLSVERYLAICHPFKAKTLMSRSRTKKFISAIWLASALLAIPMLFTMGLQNRSGDGTHPGGLVCTPIADTATVKVVIQVNTFMSFLFPMLVISILNTVIANKLTVMVHQAAEQGRVCTVGTHNGLEHSTFNMTIEPGRVQALRHGVLVLRAVVIAFVVCWLPYHVRRLMFCYISDEQWTTFLFDFYHYFYMLTNALFYVSSAINPILYNLVSANFRQVFLSTLACLCPGWRHRRKKRPTFSRKPNSMSSNHAFSTSATRETLY |  | improved thermostability | 
L111A: NTR point mutant (protein, UniProt P20789 1-424, looked up, variant L111A) Neurotensin receptor type 1: MHLNSSVPQGTPGEPDAQPFSGPQSEMEATFLALSLSNGSGNTSESDTAGPNSDLDVNTDIYSKVLVTAIYLALFVVGTVGNSVTAFTLARKKSLQSLQSTVHYHLGSLAASDLLILLLAMPVELYNFIWVHHPWAFGDAGCRGYYFLRDACTYATALNVASLSVERYLAICHPFKAKTLMSRSRTKKFISAIWLASALLAIPMLFTMGLQNRSGDGTHPGGLVCTPIVDTATVKVVIQVNTFMSFLFPMLVISILNTVIANKLTVMVHQAAEQGRVCTVGTHNGLEHSTFNMTIEPGRVQALRHGVLVLRAVVIAFVVCWLPYHVRRLMFCYISDEQWTTFLFDFYHYFYMLTNALFYVSSAINPILYNLVSANFRQVFLSTLACLCPGWRHRRKKRPTFSRKPNSMSSNHAFSTSATRETLY | small but significant increase in thermostability |  | 
S100A: NTR point mutant (protein, UniProt P20789 1-424, looked up, variant S100A) Neurotensin receptor type 1: MHLNSSVPQGTPGEPDAQPFSGPQSEMEATFLALSLSNGSGNTSESDTAGPNSDLDVNTDIYSKVLVTAIYLALFVVGTVGNSVTAFTLARKKSLQSLQATVHYHLGSLALSDLLILLLAMPVELYNFIWVHHPWAFGDAGCRGYYFLRDACTYATALNVASLSVERYLAICHPFKAKTLMSRSRTKKFISAIWLASALLAIPMLFTMGLQNRSGDGTHPGGLVCTPIVDTATVKVVIQVNTFMSFLFPMLVISILNTVIANKLTVMVHQAAEQGRVCTVGTHNGLEHSTFNMTIEPGRVQALRHGVLVLRAVVIAFVVCWLPYHVRRLMFCYISDEQWTTFLFDFYHYFYMLTNALFYVSSAINPILYNLVSANFRQVFLSTLACLCPGWRHRRKKRPTFSRKPNSMSSNHAFSTSATRETLY | small but significant increase in thermostability |  | 
A73L: NTR point mutant (protein, UniProt P20789 1-424, looked up, variant A73L) Neurotensin receptor type 1: MHLNSSVPQGTPGEPDAQPFSGPQSEMEATFLALSLSNGSGNTSESDTAGPNSDLDVNTDIYSKVLVTAIYLLLFVVGTVGNSVTAFTLARKKSLQSLQSTVHYHLGSLALSDLLILLLAMPVELYNFIWVHHPWAFGDAGCRGYYFLRDACTYATALNVASLSVERYLAICHPFKAKTLMSRSRTKKFISAIWLASALLAIPMLFTMGLQNRSGDGTHPGGLVCTPIVDTATVKVVIQVNTFMSFLFPMLVISILNTVIANKLTVMVHQAAEQGRVCTVGTHNGLEHSTFNMTIEPGRVQALRHGVLVLRAVVIAFVVCWLPYHVRRLMFCYISDEQWTTFLFDFYHYFYMLTNALFYVSSAINPILYNLVSANFRQVFLSTLACLCPGWRHRRKKRPTFSRKPNSMSSNHAFSTSATRETLY |  | improved thermostability | 
K176A: NTR point mutant (protein, UniProt P20789 1-424, looked up, variant K176A) Neurotensin receptor type 1: MHLNSSVPQGTPGEPDAQPFSGPQSEMEATFLALSLSNGSGNTSESDTAGPNSDLDVNTDIYSKVLVTAIYLALFVVGTVGNSVTAFTLARKKSLQSLQSTVHYHLGSLALSDLLILLLAMPVELYNFIWVHHPWAFGDAGCRGYYFLRDACTYATALNVASLSVERYLAICHPFAAKTLMSRSRTKKFISAIWLASALLAIPMLFTMGLQNRSGDGTHPGGLVCTPIVDTATVKVVIQVNTFMSFLFPMLVISILNTVIANKLTVMVHQAAEQGRVCTVGTHNGLEHSTFNMTIEPGRVQALRHGVLVLRAVVIAFVVCWLPYHVRRLMFCYISDEQWTTFLFDFYHYFYMLTNALFYVSSAINPILYNLVSANFRQVFLSTLACLCPGWRHRRKKRPTFSRKPNSMSSNHAFSTSATRETLY | small but significant increase in thermostability |  | 
A69L: NTR point mutant (protein, UniProt P20789 1-424, looked up, variant A69L) Neurotensin receptor type 1: MHLNSSVPQGTPGEPDAQPFSGPQSEMEATFLALSLSNGSGNTSESDTAGPNSDLDVNTDIYSKVLVTLIYLALFVVGTVGNSVTAFTLARKKSLQSLQSTVHYHLGSLALSDLLILLLAMPVELYNFIWVHHPWAFGDAGCRGYYFLRDACTYATALNVASLSVERYLAICHPFKAKTLMSRSRTKKFISAIWLASALLAIPMLFTMGLQNRSGDGTHPGGLVCTPIVDTATVKVVIQVNTFMSFLFPMLVISILNTVIANKLTVMVHQAAEQGRVCTVGTHNGLEHSTFNMTIEPGRVQALRHGVLVLRAVVIAFVVCWLPYHVRRLMFCYISDEQWTTFLFDFYHYFYMLTNALFYVSSAINPILYNLVSANFRQVFLSTLACLCPGWRHRRKKRPTFSRKPNSMSSNHAFSTSATRETLY |  | improved thermostability | 
E166A: NTR point mutant (protein, UniProt P20789 1-424, looked up, variant E166A) Neurotensin receptor type 1: MHLNSSVPQGTPGEPDAQPFSGPQSEMEATFLALSLSNGSGNTSESDTAGPNSDLDVNTDIYSKVLVTAIYLALFVVGTVGNSVTAFTLARKKSLQSLQSTVHYHLGSLALSDLLILLLAMPVELYNFIWVHHPWAFGDAGCRGYYFLRDACTYATALNVASLSVARYLAICHPFKAKTLMSRSRTKKFISAIWLASALLAIPMLFTMGLQNRSGDGTHPGGLVCTPIVDTATVKVVIQVNTFMSFLFPMLVISILNTVIANKLTVMVHQAAEQGRVCTVGTHNGLEHSTFNMTIEPGRVQALRHGVLVLRAVVIAFVVCWLPYHVRRLMFCYISDEQWTTFLFDFYHYFYMLTNALFYVSSAINPILYNLVSANFRQVFLSTLACLCPGWRHRRKKRPTFSRKPNSMSSNHAFSTSATRETLY |  | improved thermostability | 
G215A: NTR point mutant (protein, UniProt P20789 1-424, looked up, variant G215A) Neurotensin receptor type 1: MHLNSSVPQGTPGEPDAQPFSGPQSEMEATFLALSLSNGSGNTSESDTAGPNSDLDVNTDIYSKVLVTAIYLALFVVGTVGNSVTAFTLARKKSLQSLQSTVHYHLGSLALSDLLILLLAMPVELYNFIWVHHPWAFGDAGCRGYYFLRDACTYATALNVASLSVERYLAICHPFKAKTLMSRSRTKKFISAIWLASALLAIPMLFTMGLQNRSADGTHPGGLVCTPIVDTATVKVVIQVNTFMSFLFPMLVISILNTVIANKLTVMVHQAAEQGRVCTVGTHNGLEHSTFNMTIEPGRVQALRHGVLVLRAVVIAFVVCWLPYHVRRLMFCYISDEQWTTFLFDFYHYFYMLTNALFYVSSAINPILYNLVSANFRQVFLSTLACLCPGWRHRRKKRPTFSRKPNSMSSNHAFSTSATRETLY |  | improved thermostability | 
Wildtype NTR: rat neurotensin receptor, parent (protein) TSESDTAGPNSDLDVNTDIYSKVLVTAIYLALFVVGTVGNSVTAFTLARKKSLQSLQSTVHYHLGSLALSDLLILLLAMPVELYNFIWVHHPWAFGDAGCRGYYFLRDACTYATALNVASLSVERYLAICHPFKAKTLMSRSRTKKFISAIWLASALLAIPMLFTMGLQNRSGDGTHPGGLVCTPIVDTATVKVVIQVNTFMSFLFPMLVISILNTVIANKLTVMVHQAAEQGRVCTVGTHNGLEHSTFNMTIEPGRVQALRHGVLVLRAVVIAFVVCWLPYHVRRLMFCYISDEQWTTFLFDFYHYFYMLTNALFYVSSAINPILYNLVSANFRQVFLSTLACLCPGWRHRRKKRPTFSRKPNSMSSNHAFSTSATRETLY |  |  | 35
